Literature values as cited in publication PMC6962051.

Biological target: linear di-ubiquitin (Homo sapiens) (UniProt P0CG47)
Assay: isothermal titration calorimetry

NEMO CoZi, sequence (Q9Y6K9 258-350): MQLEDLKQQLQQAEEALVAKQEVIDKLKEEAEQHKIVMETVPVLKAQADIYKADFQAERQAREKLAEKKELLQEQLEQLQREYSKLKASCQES

Kd: 2.4 µM
Substance: NEMO CoZi (from UniProt Q9Y6K9)
